Experimental data as given in US9708383 (Novo Nordisk, dated 2017).
*1 amine or outer side, *2 acyl side, *3 side chain or, on linkers, in order; H or OH if unused. Where no end group is shown, it is not given here. Side-chain parts run from the residue outwards. [ ]: non-standard residue; d: D form. The star is where a group is joined. Decanoyl(10-(4-HOOC-PhO)) = O=C(O)c1ccc(OCCCCCCCCCC(=O)*)cc1; γGlu = O=C(O)[C@H](CCC(=O)[*:2])N[*:1]; Hexanoyl(6-Ph) = O=C(CCCCCc1ccccc1)*; C12 diacid = O=C(O)CCCCCCCCCCC(=O)*; 13‑carboxytridecanoyl = C14 diacid; Butanoyl(4-Ph) = O=C(CCCc1ccccc1)*; AEEA = NCCOCCOCC(=O)O; Aib = CC(C)(N)C(=O)O; Ahx = NCCCCCC(=O)O

Tests used:
[1] = biological target: T1, human GLP-1 receptor (human, UniProt P43220 24-463); experiment: SPA, 2.0% vs 0.005% HSA
T1 construct: whole, on cells; Used as purified membranes of the transfected hamster cells, not whole cells; also called hGLP-1
Protocol: (§1) A shift in the binding affinity, $IC50$, is an indication that the derivative in question binds to albumin, and thereby a prediction of a potential protracted pharmacokinetic profile of the derivative in question in animal models.
(§2) 25 ul (microliter) of test compounds are added to Optiplate. HSA ("high albumin" experiment containing 2% HSA), or buffer ("low albumin" experiment containing 0.005% HSA), was added (50 ul). 5-10 µg protein/sample was added (50 ul) corresponding to 0.1-0.2 mg protein/ml (to be preferably optimised for each membrane preparation). SPA-particles (Wheatgerm agglutinin SPA beads, Perkin Elmer, #RPNQ0001) were added in an amount of 0.5 mg/well (50 ul). […] The plates were sealed with PlateSealer and incubated for 120 minutes at 30° C. while shaking. The plates were centrifuged (1500 rpm, 10 min) and counted in Topcounter.

[2] = biological target: T1, human GLP-1 receptor; experiment: SPA, displacement of 125I-GLP-1(7-36)NH2, 0.005% HSA
Protocol: as §1, §2

Binder	ratio IC50 high HSA/IC50 low HSA [1]	IC50 [2] [nM]
H[Aib]EGTFTSDVSK([AEEA-AEEA-γGlu-Decanoyl(10-(4-HOOC-PhO))])YLEEQAAK([AEEA-AEEA-γGlu-Decanoyl(10-(4-HOOC-PhO))])EFIAWLVQGRG [GLP-1 derivative of Example 2: [Aib8,Lys18,Glu22,Gln34]-GLP-1-(7-37)-peptide]	> 1	< 1000
H[Aib]EGTFTSDVSKYLEGQAAVKFIAWLVRGRG (not fully specified (residues 12, 21), also called Chem. 87) [GLP-1 derivative of Example 68: [Aib8,Lys18,Val26,Lys27,Arg34]-GLP-1-(7-37)-peptide]	> 1	< 1000
H[Aib]EGTFTSDVSK([AEEA-AEEA-γGlu-Decanoyl(10-(4-HOOC-PhO))])YLEEQAAREFIAWLVRGRK([AEEA-AEEA-γGlu-Decanoyl(10-(4-HOOC-PhO))]) [GLP-1 derivative of Example 1: [Aib8,Lys18,Glu22,Arg26,Arg34,Lys37]-GLP-1-(7-37)-peptide]	> 1	< 1000
H[Aib]EGTFTSDVSK([AEEA-AEEA-γGlu-Decanoyl(10-(4-HOOC-PhO))])YLEEQAAK([AEEA-AEEA-γGlu-Decanoyl(10-(4-HOOC-PhO))])EFIAWLVRGRG [GLP-1 derivative of Example 88: [Aib8,Lys18,Glu22,Arg34]-GLP-1-(7-37)-peptide]	> 1	< 1000
H[Aib]EGTFTSDVSK([AEEA-AEEA-γGlu-13‑carboxytridecanoyl])YLEEQAVREFIAK([AEEA-AEEA-γGlu-13‑carboxytridecanoyl])LVRGRG [GLP-1 derivative of Example 74: [Aib8,Lys18,Glu22,Val25,Arg26,Lys31,Arg34]-GLP-1-(7-37)-peptide]	> 1	< 1000
H[Aib]EGTFTSDVSK([AEEA-AEEA-γGlu-Decanoyl(10-(4-HOOC-PhO))])YLEEQAVRK([AEEA-AEEA-γGlu-Decanoyl(10-(4-HOOC-PhO))])FIAWLVQGRG [GLP-1 derivative of Example 41: [Aib8,Lys18,Glu22,Val25,Arg26,Lys27,Gln34]-GLP-1-(7-37)-peptide]	> 1	< 1000
H[Aib]EGTFTSDVSK([AEEA-AEEA-γGlu-13‑carboxytridecanoyl])YLEEQAAREFIK([AEEA-AEEA-γGlu-13‑carboxytridecanoyl])WLVRGRG [GLP-1 derivative of Example 51: [Aib8,Lys18,Glu22,Arg26,Lys30,Arg34]-GLP-1-(7-37)-peptide]	> 1	< 1000
H[Aib]EGTFTSDVSK([AEEA-AEEA-γGlu-Decanoyl(10-(4-HOOC-PhO))])YLEEQAVREFIAK([AEEA-AEEA-γGlu-Decanoyl(10-(4-HOOC-PhO))])LVRGRG [GLP-1 derivative of Example 76: [Aib8,Lys18,Glu22,Val25,Arg26,Lys31,Arg34]-GLP-1-(7-37)-peptide]	> 1	< 1000
H[Aib]EGTFTSDVSK([AEEA-AEEA-γGlu-Decanoyl(10-(4-HOOC-PhO))])YLEEQAAREFIAK([AEEA-AEEA-γGlu-Decanoyl(10-(4-HOOC-PhO))])LVRGRG [GLP-1 derivative of Example 3: [Aib8,Lys18,Glu22,Arg26,Lys31,Arg34]-GLP-1-(7-37)-peptide]	> 1	< 1000
H[Aib]EGTFTSDVSK([AEEA-AEEA-γGlu-13‑carboxytridecanoyl])YLEEQAAREFIAK([AEEA-AEEA-γGlu-13‑carboxytridecanoyl])LVRGRG [GLP-1 derivative of Example 73: [Aib8,Lys18,Glu22,Arg26,Lys31,Arg34]-GLP-1-(7-37)-peptide]	> 1	< 1000
HAEGTFTSDVSK([AEEA-AEEA-γGlu-13‑carboxytridecanoyl])YLEEQAAK([AEEA-AEEA-γGlu-13‑carboxytridecanoyl])EFIAWLVRGRG [GLP-1 derivative of Example 96: [Lys18,Glu22,Arg34]-GLP-1-(7-37)-peptide]	> 1	< 1000
HAEGTFTSDVSK([AEEA-AEEA-AEEA-AEEA-γGlu-13‑carboxytridecanoyl])YLEEQAVREFIAK([AEEA-AEEA-AEEA-AEEA-γGlu-13‑carboxytridecanoyl])LVRGRG [GLP-1 derivative of Example 98: [Lys18,Glu22,Val25,Arg26,Lys31,Arg34]-GLP-1-(7-37)-peptide]	> 1	< 1000
HAEGTFTSDVSK([AEEA-AEEA-γGlu-13‑carboxytridecanoyl])YLEEQAVREFIAK([AEEA-AEEA-γGlu-13‑carboxytridecanoyl])LVRGRG-NH2 [GLP-1 derivative of Example 133: [Lys18,Glu22,Val25,Arg26,Lys31,Arg34]-GLP-1-(7-37)-peptide amide]	> 1	< 1000
HAEGTFTSDVSK([AEEA-AEEA-γGlu-γGlu-γGlu-13‑carboxytridecanoyl])YLEEQAVREFIAK([AEEA-AEEA-γGlu-γGlu-γGlu-13‑carboxytridecanoyl])LVRGRG [GLP-1 derivative of Example 101: [Lys18,Glu22,Val25,Arg26,Lys31,Arg34]-GLP-1-(7-37)-peptide]	> 1	< 1000
HAEGTFTSDVSK([AEEA-AEEA-γGlu-γGlu-13‑carboxytridecanoyl])YLEK([AEEA-AEEA-γGlu-γGlu-13‑carboxytridecanoyl])QAAREFIAWLVQGRG [GLP-1 derivative of Example 126: [Lys18,Lys22,Arg26,Gln34]-GLP-1-(7-37)-peptide]	> 1	< 1000
HAEGTFTSDVSK([AEEA-AEEA-γGlu-γGlu-13‑carboxytridecanoyl])YLEEQAAK([AEEA-AEEA-γGlu-γGlu-13‑carboxytridecanoyl])EFIAWLVRGRG (Name prints Lys without its number (Lys18)) [GLP-1 derivative of Example 97: [Lys,Glu22,Arg34]-GLP-1-(7-37)-peptide]	> 1	< 1000
HAEGTFTSDVSK([γGlu-AEEA-AEEA-γGlu-13‑carboxytridecanoyl])YLEEQAVREFIAK([γGlu-AEEA-AEEA-γGlu-13‑carboxytridecanoyl])LVRGRG [GLP-1 derivative of Example 111: [Lys18,Glu22,Val25,Arg26,Lys31,Arg34]-GLP-1-(7-37)-peptide]	> 1	< 1000
HAEGTFTSDVSK([AEEA-AEEA-γGlu-Ahx-γGlu-Hexanoyl(6-Ph)])YLEGQAAK([AEEA-AEEA-γGlu-Ahx-γGlu-Hexanoyl(6-Ph)])EFIAWLVRGRG [GLP-1 derivative of Example 129: [Lys18,Arg34]-GLP-1-(7-37)-peptide]	> 1	< 1000
HAEGTFTSDVSK([AEEA-AEEA-AEEA-AEEA-AEEA-AEEA-γGlu-13‑carboxytridecanoyl])YLEEQAVREFIAK([AEEA-AEEA-AEEA-AEEA-AEEA-AEEA-γGlu-13‑carboxytridecanoyl])LVRGRG [GLP-1 derivative of Example 99: [Lys18,Glu22,Val25,Arg26,Lys31,Arg34]-GLP-1-(7-37)-peptide]	> 1	< 1000
HAEGTFTSDVSK([AEEA-AEEA-γGlu-C12 diacid])YLEEQAVREFIAK([AEEA-AEEA-γGlu-C12 diacid])LVRGRG [GLP-1 derivative of Example 124: [Lys18,Glu22,Val25,Arg26,Lys31,Arg34]-GLP-1-(7-37)-peptide]	> 1	< 1000
HAEGTFTSDVSK([AEEA-AEEA-γGlu-Decanoyl(10-(4-HOOC-PhO))])YLEGQAVREFIAK([AEEA-AEEA-γGlu-Decanoyl(10-(4-HOOC-PhO))])LVRGRG [GLP-1 derivative of Example 107: [Lys18,Val25,Arg26,Lys31,Arg34]-GLP-1-(7-37)-peptide]	> 1	< 1000
HAEGTFTSDVSK([AEEA-AEEA-γGlu-13‑carboxytridecanoyl])YLEEQAAHK([AEEA-AEEA-γGlu-13‑carboxytridecanoyl])FIAHLVQGRG [GLP-1 derivative of Example 119: [Lys18,Glu22,His26,Lys27,His31,Gln34]-GLP-1-(7-37)-peptide]	> 1	< 1000
HAEGTFTSDVSK([γGlu-AEEA-AEEA-13‑carboxytridecanoyl])YLEGQAVREFIAK([γGlu-AEEA-AEEA-13‑carboxytridecanoyl])LVRGRG [GLP-1 derivative of Example 104: [Lys18,Val25,Arg26,Lys31,Arg34]-GLP-1-(7-37)-peptide]	> 1	< 1000
HAEGTFTSDVSK([AEEA-AEEA-γGlu-Ahx-γGlu-Butanoyl(4-Ph)])YLEGQAAK([AEEA-AEEA-γGlu-Ahx-γGlu-Butanoyl(4-Ph)])EFIAWLVRGRG [GLP-1 derivative of Example 110: [Lys18,Arg34]-GLP-1-(7-37)-peptide]	> 1	< 1000
HAEGTFTSDVSK([AEEA-AEEA-γGlu-13‑carboxytridecanoyl])YLEEQAVRK([AEEA-AEEA-γGlu-13‑carboxytridecanoyl])FIAHLVQGRG [GLP-1 derivative of Example 118: [Lys18,Glu22,Val25,Arg26,Lys27,His31,Gln34]-GLP-1-(7-37)-peptide]	> 1	< 1000
HAEGTFTSDVSK([AEEA-AEEA-γGlu-2‑(2-(trifluoromethyl)phenyl)acetyl])YLEK([AEEA-AEEA-γGlu-2‑(2-(trifluoromethyl)phenyl)acetyl])QAAREFIAWLVQGRG [GLP-1 derivative of Example 125: [Lys18,Lys22,Arg26,Gln34]-GLP-1-(7-37)-peptide]	> 1	< 1000
HAEGTFTSDVSK([γGlu-AEEA-AEEA-Decanoyl(10-(4-HOOC-PhO))])YLEGQAAK([γGlu-AEEA-AEEA-Decanoyl(10-(4-HOOC-PhO))])EFIAWLVRGRG [GLP-1 derivative of Example 106: [Lys18,Arg34]-GLP-1-(7-37)-peptide]	> 1	< 1000
HAEGTFTSDVSK([AEEA-AEEA-γGlu-2‑(4-(4-fluorophenoxy)phenyl)acetyl])YLEK([AEEA-AEEA-γGlu-2‑(4-(4-fluorophenoxy)phenyl)acetyl])QAAREFIAWLVQGRG [GLP-1 derivative of Example 120: [Lys18,Lys22,Arg26,Gln34]-GLP-1-(7-37)-peptide]	> 1	< 1000
